Test results as given in patent US10760112B2, “Enzymatic activity assays for glucocerebrosidase” (Shire Human Genetic Therapies, Inc., priority 2014, dated 2020).

Tests used:
[1] = Velaglucerase activity at varying levels of sodium taurocholate; type: biochemical; settings: range tested 2 mM to 25 mM sodium taurocholate
Method: Assays of velaglucerase activity were carried out in the presence of varying levels of sodium taurocholate or oleic acid. Sodium taurocholate is an anionic detergent that has been, in some cases, used to facilitate lipid-based substrate solubility in aqueous environments. The effect of sodium taurocholate was examined over a concentration range of 2 mM to 25 mM (FIG. 6).

[2] = Enzyme kinetics assay with C18:1 glucosylceramide substrate, glucose detected by HPAEC-PAD; type: biochemical
Method: Sonication was used to achieve a consistent substrate preparation. A sonicator was pre-set to 60% AMPL and 5 minutes. A 4 oz. amber bottle of substrate dilution buffer (4 mM taurocholic acid, 0.2% v/v oleic acid in citrate/phosphate buffer pH 5.0) was placed in the noise isolation chamber and the sonicator probe was immersed into the solution. The substrate dilution buffer was sonicated at 60% AMPL for 5 minutes. Following sonication, the noise isolation chamber was opened. A second cycle of sonication at 60% AMPL for 5 minutes was initiated while the amber bottle was gently swirled. After 5 minutes, the substrate dilution buffer was cloudy. Approximately 15-20 mg of C18:1 glucosylceramide was weighed in a clean 2 oz. amber bottle. Sonicated substrate dilution buffer was added to bring the concentration of C18:1 glucosylceramide to 0.64 mg/mL (approximately 880 μM). Next, the same sonication steps were repeated for the 2 oz. amber bottle of 880 μM C18:1 glucosylceramide, with the additional consideration that, prior to the step of gently swirling the bottle while sonicating, it was ensured that all substrate particles were in the biphasic mixture. Sonication and swirling were continued until there were no visible particles in the mixture.
After the sonication procedure, two stocks were prepared for use in the assay. A first reagent reservoir filled with sonicated substrate dilution buffer. A second reagent reservoir was filled with 6 mL sonicated substrate dilution buffer and 2 mL of the 880 μM C18:1 glucosylceramide (final substrate concentration of 220 μM C18:1 glucosylceramide).
A dilution series of substrate was prepared in a 96-well plate having columns 1-12, rows A-H, and a well volume of 0.5 mL. Each well of rows A-G was filled with 170 μL substrate dilution buffer. In addition, 200 μL substrate solution of different concentrations were transferred to the appropriate wells of rows A to G according to Table 2. Substrate dilution buffer and substrate solution were mixed by pipetting.
Frozen experimental and assay control samples were thawed in a 37° C. water bath for <5 min. In the present examples, the sample is a sample of enzyme. After thawing, each tube was placed on ice. Dilutions of the samples were then prepared at room temperature. To prepare the sample dilutions, sample dilution buffer (50 mM citrate buffer pH 6.0, 0.75 mg/ml BSA) was placed on ice in centrifuge tubes, each tube containing 990 μL sonicated sample dilution buffer. Tubes of sample dilution buffer were briefly vortexed (1-3 seconds) and pulse centrifuged to collect the liquid to the bottom of the tube. A 10 μL aliquot of each sample was transferred into a dedicated tube of sample dilution buffer to prepare a 1:100 dilution. Samples were diluted in triplicate. Samples were briefly vortexed to ensure proper mixing. Next, a 10 μL aliquot of each of 1:100 diluted sample was transferred to a dedicated second tube having been preloaded with 990 μL sample dilution buffer, resulting in a 1:10,000 dilution. Samples were briefly vortexed to ensure proper mixing. Next, the 1:10,000 dilution was used to prepare a 1 mL dilution having a final concentration of 0.02 ng/μL. In particular, the volume of the 1:10,000 dilution needed to dilute the enzyme to 0.02 ng/μL in 1 mL was determined and transferred from the second tube into the a third dedicated tube preloaded with an amount of sample dilution buffer calculated to result in a total volume of 1 mL at 0.02 ng/μL. Accordingly, when 10 μL of 0.02 ng/μL enzyme is mixed with 100 μL of substrate solution, the final concentration of enzyme is 0.0290 nM, assuming a monomer with a relative molecular mass of 62.8 kDa. Samples were briefly vortexed to ensure proper mixing. Final dilution tubes were placed on ice.
Briefly, velaglucerase alfa was incubated with C18:1 glucosylceramide at eight concentrations of substrate (2.70-200 μM) and in 110 μL reactions for 20 min at 37° C. with appropriate standards and/or controls. […]

[3] = Photo Stress (forced degradation, oxidation by light exposure)

optimal concentration of sodium taurocholate [1]: 6.5 mM
sodium taurocholate concentration above which activity gradually declined [1]: above 8 mM
B1: velaglucerase: recombinant form of glucocerebrosidase approved as long-term enzyme replacement therapy for Gaucher disease (SEQ ID NO: 1) (protein)
chain: ARPCIPKSFGYSSVVCVCNATYCDSFDPPTFPALGTFSRYESTRSGRRMELSMGPIQANHTGTGLLLTLQPEQKFQKVKGFGGAMTDAAALNILALSPPAQNLLLKSYFSEEGIGYNIIRVPMASCDFSIRTYTYADTPDDFQLHNFSLPEEDTKLKIPLIHRALQLAQRPVSLLASPWTSPTWLKTNGAVNGKGSLKGQPGDIYHQTWARYFVKFLDAYAEHKLQFWAVTAENEPSAGLLSGYPFQCLGFTPEHQRDFIARDLGPTLANSTHHNVRLLMLDDQRLLLPHWAKVVLTDPEAAKYVHGIAVHWYLDFLAPAKATLGETHRLFPNTMLFASEACVGSKFWEQSVRLGSWDRGMQYSHSIITNLLYHVVGWTDWNLALNPEGGPNWVRNFVDS
Km ([2]; Baseline (unstressed control)): 4.9 µM
kcat ([2]; Baseline (unstressed control)): 90.7 s⁻¹
Km [2, 3]: 6.7 µM
kcat [2, 3]: 76.8 s⁻¹
change in kcat, stressed sample vs baseline ([2]; photo stress vs unstressed control): clear decrease
change in Km, stressed sample vs baseline ([2]; photo stress vs unstressed control, not considered significant): minor increase
